This is an account of results in patent publication US10946092 (BEIJING MABWORKS BIOTECH, dated 2021).

Assay [1] addresses T1, recombinant mouse LAG3(ECD)-his (Sino Biological, Cat #: 53069-M08H) (mouse, UniProt Q61790 24-442).
T1 construct: extracellular domain; Bought protein; also called Mouse LAG3-his; not shown: his tag
T1 sequence (looked up): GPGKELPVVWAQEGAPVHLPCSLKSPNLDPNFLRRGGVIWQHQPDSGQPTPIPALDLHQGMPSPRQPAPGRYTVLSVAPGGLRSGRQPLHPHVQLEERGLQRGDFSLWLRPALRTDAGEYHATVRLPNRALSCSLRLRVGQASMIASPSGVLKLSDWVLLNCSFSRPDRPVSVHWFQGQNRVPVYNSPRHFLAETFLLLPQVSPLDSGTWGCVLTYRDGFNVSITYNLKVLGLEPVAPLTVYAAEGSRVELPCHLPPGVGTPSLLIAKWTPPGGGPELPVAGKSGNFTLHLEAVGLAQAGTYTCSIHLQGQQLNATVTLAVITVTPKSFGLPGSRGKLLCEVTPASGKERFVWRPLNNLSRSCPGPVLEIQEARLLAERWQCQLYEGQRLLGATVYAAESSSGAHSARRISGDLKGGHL
The experiment in a line: ELISA, coated mouse LAG3-his. The protocol: Species-cross-reactivity of the 12 LAG3 mAbs to monkey or mouse LAG3 was further tested by direct ELISA. Briefly, 50 µl of 500 ng/ml monkey LAG3(ECD)-hFc (ACRO, CN, Cat #: LA3-05252) or mouse LAG3-his (Sino Biological, CN, Cat #:53069-M08H) was coated on 96-well ELISA plates followed by incubation with 100 µl of serially diluted anti-LAG3 antibodies (starting from 40 µg/ml). Goat anti-mouse IgG conjugated with HRP (Sigma, US, Cat #: A9309-1 ml) was added then.
In general terms: An ELISA detects its analyte on a solid surface through an enzyme-linked reagent.

Assay [2] deals with T2, monkey (rhesus) LAG3 expressed on HEK293A cells (monkey (rhesus), UniProt A0A5F8A874 23-533).
T2 construct: whole, on cells; also called HEK293A/rh LAG3
T2 sequence: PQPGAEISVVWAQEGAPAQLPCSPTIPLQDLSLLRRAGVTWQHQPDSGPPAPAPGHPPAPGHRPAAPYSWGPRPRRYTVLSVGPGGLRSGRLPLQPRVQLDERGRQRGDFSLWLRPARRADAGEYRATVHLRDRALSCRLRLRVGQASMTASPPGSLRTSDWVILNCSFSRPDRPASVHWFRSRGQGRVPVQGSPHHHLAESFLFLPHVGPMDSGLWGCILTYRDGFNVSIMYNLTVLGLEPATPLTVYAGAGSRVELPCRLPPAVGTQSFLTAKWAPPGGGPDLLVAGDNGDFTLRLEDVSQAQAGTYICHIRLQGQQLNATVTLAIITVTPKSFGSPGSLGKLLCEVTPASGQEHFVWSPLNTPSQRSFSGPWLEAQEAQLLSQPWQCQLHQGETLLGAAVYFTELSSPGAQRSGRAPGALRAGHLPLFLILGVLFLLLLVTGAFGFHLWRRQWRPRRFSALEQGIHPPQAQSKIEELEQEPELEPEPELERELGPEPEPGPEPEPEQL
Briefly: FACS on HEK293A/rh LAG3 cells. The protocol:
(§1) Briefly, 10^5 HEK293A cells in 50 μl PBS buffers were seeded into each well of the 96-well plates and then added with 50 μl of serially diluted anti-LAG3 antibodies (5-fold dilution, starting from 40 μg/ml). After incubated at 4° C. for 1 hour, plates were washed 3 times with PBST. Then, an APC coupled Goat Anti-Mouse IgG (BioLegend, US, Cat #: 405308) diluted 500× was added to the plates. After incubation at 4° C. for 1 hour, the plates were washed with PBS for 3 times and then cell fluorescence was monitored using a FACS machine (BD).

The target of assay [3] is T3, human LAG3 expressed on HEK293A cells (human, UniProt P18627 23-525).
T3 construct: whole, on cells; also called HEK293A/human LAG3
T3 sequence (looked up): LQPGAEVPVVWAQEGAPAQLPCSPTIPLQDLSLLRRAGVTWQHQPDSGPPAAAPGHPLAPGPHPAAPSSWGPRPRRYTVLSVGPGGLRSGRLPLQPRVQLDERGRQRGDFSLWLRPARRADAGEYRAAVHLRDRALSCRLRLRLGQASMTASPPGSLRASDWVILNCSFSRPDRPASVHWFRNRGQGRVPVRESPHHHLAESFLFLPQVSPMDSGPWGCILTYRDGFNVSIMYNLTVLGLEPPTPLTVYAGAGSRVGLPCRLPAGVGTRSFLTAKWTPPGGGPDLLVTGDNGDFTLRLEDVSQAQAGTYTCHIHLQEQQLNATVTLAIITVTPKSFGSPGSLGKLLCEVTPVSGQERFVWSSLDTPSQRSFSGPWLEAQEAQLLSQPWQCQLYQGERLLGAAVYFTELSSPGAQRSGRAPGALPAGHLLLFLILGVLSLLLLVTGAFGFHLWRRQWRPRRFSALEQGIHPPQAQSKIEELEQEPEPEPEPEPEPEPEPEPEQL
Briefly: FACS on HEK293A/human LAG3 cells. The protocol:
as §1

Assay [4] deals with T4, hLAG-3-hIg fusion protein (human LAG-3 extracellular domain fused to human Fc); Sino Biological, Cat #: … (human, UniProt P18627 23-450).
T4 construct: extracellular domain; Bought protein; also called LAG3 fusion protein; human LAG3(ECD)-hFc; not shown: human Fc
T4 sequence (looked up): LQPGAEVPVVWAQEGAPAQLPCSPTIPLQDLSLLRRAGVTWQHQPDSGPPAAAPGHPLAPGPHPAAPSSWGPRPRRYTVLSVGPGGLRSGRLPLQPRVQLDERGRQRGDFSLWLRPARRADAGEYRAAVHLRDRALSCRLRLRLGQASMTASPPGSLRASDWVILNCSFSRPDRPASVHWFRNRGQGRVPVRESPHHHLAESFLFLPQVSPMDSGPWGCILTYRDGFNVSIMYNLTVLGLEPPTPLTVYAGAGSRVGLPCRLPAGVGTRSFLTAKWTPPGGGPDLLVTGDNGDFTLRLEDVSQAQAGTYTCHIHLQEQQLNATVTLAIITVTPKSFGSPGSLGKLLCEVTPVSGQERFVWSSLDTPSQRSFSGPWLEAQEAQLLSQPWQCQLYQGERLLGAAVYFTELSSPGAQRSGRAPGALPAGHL
Briefly: FACS blocking assay; antibody titrated against 10 µg/ml hLAG-3-hIg binding to MHC II on Daudi cells. The protocol: The mixtures were then added and incubated with 2 ×10^5 Daudi cells in 100 μl PBS buffer at 4° C. for 30 minutes. The cells were pelleted (three minutes, 400×g), washed twice with 1×PBS buffer and repelleted, and added and incubated with a recombinant PE-labeled F(ab')2 anti-hIgG Fc (1:200, Life Technologies, USA, Cat #: H10104) at 4° C. for 30 minutes, and washed once with 1×PBS. Analysis of […] binding was carried out with the FACS flow cytometer (BD Bioscience).

B1: mouse anti-LAG3 monoclonal antibody 101F4 (antibody, V domains shown)
VH: EVQLEQSGAELVRPGASVTLSCKASGYTFTDYEMHWVKQTPVYGLEWMGAIDPETGGIVYNQRFKGKAILTADKSSSTAYMELRSLTSEDSAVYYCTGAGWGYWGQGTTLTVSS
VL: DIVITQSPSSMYASLGERVTITCKASQDINSYLSWFQQKPGKSPKTLIYRANRLLDGVPSRFSGSGSGQDYSLTISSLEFEDMGLYYCLQYDEFPFTFGSGTKLEIK
B1: the binding result in assay [1] was “no binding (tested: starting from 40 µg/ml)”. For the same molecule, the EC50 in assay [2] was 0.39 nM; in assay [3] it was 0.36 nM; in assay [4], 13 nM.

B2: mouse anti-LAG3 monoclonal antibody 134G10 (antibody, V domains shown)
VH: EVQLVESGGDLVKPGGSLKLSCAASGFTFSSFGMSWVRQTPDKRLEWVGIISSGGTYTFYPDILKGRFTISRDNAKNTLYLQMSSLKSEDTAMYYCARVYSDYDGRFDYWGQGTTLTVSS
VL: DIVMTQSPSSLSVSAGEKVTMNCKSSQSLLNSGNQKNYLAWYQQKPGQPPKLLIYGASTRESGVPDRFTGSGSGTDFTLTISSVQAEDLAVYYCQNDHSYPLTFGAGTKLELK
With B2, in assay [1], the binding result is on record as “no binding (tested: starting from 40 µg/ml)”. The results for the EC50 in assay [2], in assay [3] and in assay [4] were 6.5 nM, 8.6 nM and 9.3 nM, respectively.

For orientation: EC50 means the concentration needed to bring the measured effect to its halfway point.
